Source: the DeepSol protein solubility set

experiment: soluble on expression in E. coli; label from the status in PepcDB or PDB records

Row | Sequence | soluble on expression in E. coli
1 | MDFSEASTSGDRVNGFAKPFPPKPREGAPPPAPPLAPGASTSQAPPPLQPPPVIESAEKFYVPGVEEKSKFRILSQQVEISNLNISTRSFNVRTEIVLLPCEKSLYQLDLHIGKCSLLPNEVPGSASKVTLNGVECEYSRRDFWKDLAQEKSISSLEPVLYEKLAENDYELQILIPKEVRKKIKHRKAVRLRVDTVVRDPPRGLQFVDFNEHDCHVFTYHTPHISGAREWTVCLDEPDQLALWELTFELEPHLVPVASGELEEKREVSENGKIRYKFHQTVPTSACNIGWAIGRFKLEPHPESPTIYTFSLPGLEPFVNHTTMYLDKMVEFLEEKLSCRFPYPTLKVVFVDQCTEEIQVYSSLLIVPTAMLYHKKIIDVVQEARQKLIFSIALQFFGCLISPAQWWHWWIPVSIARFLTSLYVETKLGTAEARWQLKRAMDDVCDYEHQWGKIVLSPPEPTKKLPLHVDPRHEYTASPLYVEAMLKKGFLTMRMLQRRIGLEPFMRVLHRVLTVGLDMSEKKTTPAAWRHLLTTTESFFRSVISVTGKEIPSFLSQFVRTGGHAAFAVKFDFNRKRNIVEIEIKQDDTEGNGRTQYTGPLSVVVQEVDGAFTHTIQIDGAVSHAEISCHSKGRKQRKKKVPLLTGEEIEIDLTNMDAESPILWLRIDPDYLLIREITISQPMFHWEYMLRYERDVIAQMEALERIQALPSAHSRSVIVDAVANEKFFYRIRYRAAFVLTFVQNRKSEALTVGTPVLINMFRESFGSKAATNIPRSNNFVVTAQNLQQYFVMQALPQAIARLRRQSGECHEDVQPFLLDLIKFNDNSTNRYSDDFYRAALYNSLASSVFPHDALPCHVELPENLSNDVRVLIKEFTYALNMDTVSPSWGRVVGAAALTGLYQLQKCGYLPLDSQLLWTFSHPNCCVQMRRCAITLIIDRIVNDPHAADTRMLDLSRILELAELEQDPSIRRMIPRLLAQTPPTIFGSENAANTAETAERLWKLCTNSSIDSCIRSGFLDVYYSLYALGAPPALGGPEESVGIHRAYVTVPNAASTFATSQWHNSGYEAARRSPPRRDFGDETMNLMQ | soluble
2 | MAHHHHHHMRPVIVMLLHEEQDTGAYMIKYLVTRGMDFVMFRCWEERVASLVPKAAGETIRCLPVANKPHHYVPCLVNSTAAPSTESESLVTTSTSLAPVSSNVAEDCRIRAVASFGGSMSVNDELSYFESIRSLMRSCLEKRIPVIGHCLGGQLLSSALGGRIVLSENIEVGWYEMVVEEAEDVKDWFGGRKRFDAFHIHTDSFTIPQGARRIVTGAYCANQAFQVGDQFALGMQFHPEVDEDKVRSLISSQFPTLYTEEELADILRKGAEGAKTPDGRPLVSPGSMTRECIEKCLREGRIEQNRPIADSIYDTWCSGFLF | not soluble
3 | MSKLTAAYNKTRECVVTRSKIMMGYPEARYPTIPKILKKTADFQKLEGSKDRIAFTLSQEPIADKKCTEMIKNVLLEQFQDTDIPANYIAVSMALPNFKIGQNCHDFQPLDWYKNIKGYFTYKKITEQVQAAYFNDEAGNQFLAGVCYYATPAGKWVAKLQTEQTLLRFEFQKAEPFPLNSKSRFDTKAFKKFARYGRYCETEGCRVLVWVGKADGQIVHLNYHPVYCMQWTKGCAECAKDHFEYMWIAPEEPVVQKSKEEDYILKAPEDKDLSDFDQLSDVLNVDAISLH | not soluble
4 | MARDGGVSCLRRSEMMSVGGIGGIESAPLDLDEVHVLAVDDSLVDRIVIERLLRITSCKVTAVDSGWRALEFLGLDNEKASAEFDRLKVDLIITDYCMPGMTGYELLKKIKESSNFREVPVVIMSSENVLTRIDRCLEEGAQDFLLKPVKLADVKRLRSHLTKDVKLSNGNKRKLPEDSSSVNSSLPPPSPPLTISPESSPPLTVSTESSDSSPPLSPVEIFSTSPLSSPIDDEDDDVLTSSSEESPIRRQKMRSPGLD | not soluble
5 | STRERLLSALEDLEVLSRELIEMLAISRNQKLLQAGEENQVLELLIHRDGEFQELMKLALNQGKIHHEMQVLEKEVEKRDSDIQQLQKQLKEAEQILATAVYQAKEKLKSIEKARKGAISSEEIIKYAHRISASNAVCAPLTWVPGDPRRPYPTDLEMRSGLLG | not soluble
6 | SETQEGVSKQSIRERIWDYMESHDIADFPRPVHHRIPNFKGAAQAAGHLPHLQAFHVARTIKVNPDAPQRNARFLVLESKKTLLVPTPRLRTGLFNKITPPPGATKDILRKCATSQGVRNFSVPVGLDSSVLVDLVVVGSVAVSEKGKLETGCLDVPEGYPGHSPLACVHAESLTSAPVPLTLQAFCCSVSPHGRLSVIGMGGIESLSHLNQHSVERPLPGLCGGPLMVVVIPH | not soluble
7 | MQSWYLLYCKRGQLQRAQEHLERQAVNCLAPMITLEKIVRGKRTAVSEPLFPNYLFVEFDPEVIHTTTINATRGVSHFVRFGASPAIVPSAVIHQLSVYKPKDIVDPATPYPGDKVIITEGAFEGFQAIFTEPDGEARSMLLLNLINKEIKHSVKNTEFRKL | soluble
8 | MREEKGMDQKVYDAYLSILKAELVPALGCTEPITIAYASAIARECLGAFPDVIQIKASGNIIKNVKSVVVPGTNGMKGIEAAVAAGLVGGKSEKKLEVISEVTEEEKEQIRDLVEKEIIEVGIAGSDLLLDVQVQLKKGDDSVFVRIANAHTNVVLVEKNGVRLFEKAMDCGGDDAGLSQEKKLLSVEGILEFADQVKLEDIEDVISRQIAYNTAIADEGLAHNYGANIGKVLLQAYGDQDVRVRAKARAAAGSDARMSGCELPVIINSGSGNQGITASVPVIEYAKELKCGEEKMYRALVLSNLIAIHQKTGIGPLSAYCGAVSAGCASGAAIAYLNGGDLRTISHTIVNCLAIASGIVCDGAKASCAAKIGMSVEAGLLGYLMIEQDQQFRAGDGIVKKGVEETIRSVGRLGKDGMRETDREILEIMIGK | not soluble
9 | MGSDKIHHHHHHMCSEGLRERYVNPYTDFAFKLLFGTDLNKEILIGFLNALFDGKQVIEDVIYLNTEHLGSKETDRRAVFDVYCENEKGEKILIEMQRGEQQFFKDRSIYYATYPIREQAIKGEIWNYELKAVYVIGILNFALDDVSSSGFRHEVKLMDTTTHEVFFDKLTFVYLEMPKFHKTEQELDTLFDKWMFVLKNLARLMERPTSLQERVFNRLFEAAEIAQFSKENLYAYEESLKVYRDWNNVINTAIQKGIAEGEWMKAKAIAGNLKNAGLSIAEIAKVTGLSEDEINSL | not soluble
10 | MSQQKSDFADDADIDESLDELASEETIEETVENLEANGFEVIVVNSADDALAELQSLIPAEASVMNGHSTTLEEIGFDEYLSDGDHGWESLPEEIWSIDDDAKRQAARRESQTADYFLGGINGISQTGELVAADRSGSRIGAYPFAASNVVIVSGVNKIVPTLEDALDRLETVAYPLENERAKEAYGVDSAIAKQLILRQELEEGRTTVVLIREHLGYLEHHHHHH | soluble
11 | MGSDKIHHHHHHMKIGFIGTGNMGTILIESFIESKAADPSNMTITNRTIEKALHIKNRYNSINVTESLEKLVSENEMIFICVKPLDIYPLLARALPYLRKDHILISITSPVQTEQLEQYVPCQVARVIPSITNRALAGVSLVTFGTSCGESAKAKINELMQHISHPLQIESDITRVASDIVSCGPAFMSYLIQRFIDAAVSETSVSKQDAILMCKEMLVGMGKLLETELYTLPALQEKVCVKGGVTGEGIKALESGVQDMFHRVFQNTHMKYEEDISAVKKQFHV | not soluble
12 | GSMFPHHSITESVNYDVKTFGSSLPVKVMEALTLAEVDDQLTINIDEGGWACLVCKEKLIIWKIALSPITKLSVCKELQLPPSDFHWSADLVALSYSSPSGEAHSTQAVAVMVATREGSIRYWPSLAGEDTYTEAFVDSGGDKTYSFLTAVQGGSFILSSSGSQLIRLIPESSGKIHQHILPQGQGMLSGIGRKVSSLFGILSPSSDLTLSSVLWDRERSSFYSLTSSNISKWELDDSSEKHAYSWDINRALKENITDAIWGSESNYEAIKEGVNIRYLDLKQNCDGLVILAAAWHSADNPCLIYYSLITIEDNGCQMSDAVTVEVTQYNPPFQSEDLILCQLTVPNFSNQTAYLYNESAVYVCSTGTGKFSLPQEKIVFNAQGDSVLGAGACGGVPIIFSRNSGLVSITSRENVSILAEDLEGSLASSVAGPNSESMIFETTTKNETIA | soluble
13 | MKAPELQIQQWFNSATDLTLADLRGKVIVIEAFQMLCPGCVMHGIPLAQKVRAAFPEDKVAVLGLHTVFEHHEAMTPISLKAFLHEYRIKFPVGVDQPGDGAMPRTMAAYQMRGTPSLLLIDKAGDLRAHHFGDVSELLLGAEIATLLGEAAPSVQKQAGTPQGDANCDNDGCTV | not soluble
14 | MVGWRIVRIATHPEVQGRGIGSWLLERLYEESVERGYDWLGSGFGINEQLLRFWLRNGFLVLHLSPD | not soluble
15 | MGSDKIHHHHHHAKSEMAFAGKGEISPRAITMWDFSWLERRWPGAGYEDWDQVLDELSERGYNAIRIDAYPHLIAENPMKKWLLKEVWNQQDWGSPDMNEVQVQPNLNLFLSKCKERDIKVGLSSWYRLDVDEVCLKLDTPEKLADCWLTILRSIEEDGLLDTILYVDLCNEWPGDSWAPFFAKTYPNVGWGNWYKEESLRWMKTSLEKMRQVYPDMPFLYSFDHGDVKKYEEVDCSFLDLYEHHIWMAQQNGGEFYKLVGYGYNRFLPDDYKNVVKNAERVYRERPGYWQKLLTDKIELMASVARKNRRPLVTTECWGLVDYKDWPLLKWDWVKDLCELGTITAARTGMWVGVATSNFCGPQFAGMWRDVEWHKRLTSIIRSSPLDESLTKNNEVAAKLLKRL | not soluble
16 | MGSDKIHHHHHHMITFDEIIPGVTDILKEYSKELDQMAPILVNRDLNGRVRLIIKDDIRGNSHAEGVLDKISKALHQRLGAHGFPPERIVLFETDMQTVLAETPCFPLDGVEGVSVADRLVTESNWSKGIAPTETVPRIVFFSIKGGVGRSTSLAAAAWALAESGKRVLVLDMDLESPGLSSSLLPQDRRPKFGITDWLVEDLVDNGDRVISDMIATSPLSRNGDIYVVPAHGADPGEYIAKLGRVWMPKVNAEGRRILWVQRLQGLLNALEDRLKPDVILLDSRAGIDEVASACVTDLGASSVLLFALDGDQTWSGYRILFRHWRQSGVVRDIRERLQVVGAMIPDVDAAGYYADLLESSWNAFSEELYDEIPAGLSANGEDYWNFDQADEAAPHYPWSIRWNRGFSAMRSLHNRFDTVDAEQVNYVFGDFLTGLAASVQNEEDER | not soluble
17 | MTSVLDPDRALEDEAKDKFGFVGIAKQLAPPIIEAAKGEGMVIGLEGRWGSGKTSLLNFLRAELQASKKSGIHTITIAPWLNGDTSSLVLSLLEPMAAVLKQKEDELAESYGEGQSATKERVAEVGRLLRAYGPKTARRIASLANVAGYVLPGAQAIGGALAASASAADEIFDVGPTPSELKQELAVKIQELNVGFIVILDDLDRLEPEQAVEVVRLVRSVADFPKVVYLMCYDREVLSEALKTGLKVSDGDLFLQKIVQLTFNIPLPEPFDLRTQFRNEAKAIYFEATGVDLDGAILHDLTYAVDREGMGLSTPREVKLALNSIRFVFSQVKDDVYFPDLCRLHLIKTTNYKLYKWLEIYLSVRSVLVTGDATVSEDEKTKMGEELKMLLPASGPGSVHSIWSLARFIPGVVDTEKVSERVFNAINSSAISEAVRLKRLGSPLHYRFYFALTGPKTVMPDEDFNAILELARNDIDQLESRLAAETMKRRDSGRTWFEHVLDRLDDDCISSLDESQLSGILHALSGMMDIAMKEDGEVRSFALSLDGIANIVAKRCLVRLRELNPEKQANTVRSMAQDGKAINWLVGKFFRSQLFNHGKVGERAERPEQWEISEDLLDDIIEILRKRLSEQDIKNLIPNLPNVSAYLYGWMNLTDDDQAKNWVQEYSESDEGFLDILNHLRGWAMSDKVYYPLSEKTVSSFLDWNEVKTRLDGMQSGEFSDKLEHHHHHH | soluble
18 | MGSDKIHHHHHHMETPMTMSQVDAVVRDPASVVTAIESRFSCRAFSPDRPVSRQQVEEILRIARCAASSTNTQPWKVYVLQGDRRDALVAQVCAAHDATRADSSLTAEYGEVDGYYPSEWVSPYIDRRRHNGWTLYGHLGIGKGEKDKMHAQGQRNYRFFDAPVGLMFTIDRVMGRGSLIDYGMFLQTLMLAARALGLHTCPQAAWNNCAKIVLPFIGAGANEMLVCGMALGYADQSAPVNTYRTPRETVESFTRWI | not soluble
